According to US20190002506A1 (Dana-Farber, published 2019):
Values belong to the binder of their own block, whether it stands above or below them. Numbered stars: 1 amine (or outer) side, 2 acyl side, 3 side chain; on linkers, the order of the positions; unused ones are H or OH. Bridge positions count the residues as written; N and C are the ends. Square brackets hold non-standard residues; d marks the D form. Ends that are not written are not given here. * marks the point of attachment. warhead 3 = D-nipecotic acid acylated with acrylic acid, in place of L21, C=CC(=O)N1CCC[C@@H](C(=O)*)C1; Nip(3R) = O=C([C@@H]1CCCN([*:1])C1)[*:2]; warhead 1 = not defined here; S5 = C=CCCC[C@](C)(N)C(=O)O; Acryloyl = C=CC(=O)*

Key:
BFL-1ΔC (aa 1-153) [1] = biological target: T1, BFL-1ΔC (aa 1-153) (human, UniProt Q16548 1-153); test: covalent conjugation with BFL-1 cysteine mutants, gel shift
T1 construct: also called wild-type BFL-1ΔC; BFL-1 WT
T1 sequence: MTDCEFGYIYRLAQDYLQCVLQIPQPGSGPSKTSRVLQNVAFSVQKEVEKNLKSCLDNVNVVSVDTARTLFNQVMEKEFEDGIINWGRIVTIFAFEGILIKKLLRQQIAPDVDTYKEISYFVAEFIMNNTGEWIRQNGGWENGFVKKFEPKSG

HA-BFL-1ΔC C4S/C19S = biological target: T2, HA-BFL-1ΔC C4S/C19S (human, UniProt Q16548 1-153); test: 293T lysates, 10 µM biotinylated peptide, anti-HA and anti-biotin western
T2 construct: range 1-153; also called expressed HA-BFL-1ΔC C4S/C19S; not shown: HA tag (pCMV plasmid)
T2 sequence (looked up): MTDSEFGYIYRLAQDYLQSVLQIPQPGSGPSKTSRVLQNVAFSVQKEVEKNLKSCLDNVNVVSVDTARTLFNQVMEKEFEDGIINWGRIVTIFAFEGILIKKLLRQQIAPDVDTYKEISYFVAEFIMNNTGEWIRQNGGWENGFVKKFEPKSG
Description: For lysate experiments, cells were trypsinized 24 hours post-transfection, washed with PBS, and lysed by incubation with 1% CHAPS lysis buffer (150 mM NaCl, 50 mM Tris pH 7.4, 100 mM DTT). Protein concentration of the soluble fraction was measured using a BCA kit according to manufacturer's instructions (Thermo Scientific). […] Samples were then boiled in LDS buffer and subjected to western analysis using 1:1000 dilutions of HA (Sigma-Aldrich, #12CA5) and biotin (Abcam, #53494) antibodies. […] After 24 h, cells were trypsinized, washed with PBS, lysed in 1% CHAPS buffer, and the supernatant collected for protein concentration determination by BCA kit. […] The mixtures were then subjected to HA or FLAG (Sigma-Aldrich, F7425) immunoprecipitation, followed by western analysis using 1:1000 dilutions of HA, FLAG, biotin, and BID (Santa Cruz sc-11423) antibodies. […] Cells were harvested and lysed as above, and incubated overnight with anti-HA agarose beads (Pierce). The beads were washed 3 times with lysis buffer, eluted by boiling in LDS buffer, and subjected to western analysis with HA and biotin antibodies.

BFL-1ΔC C4S/C19S [2] = biological target: T3, BFL-1ΔC C4S/C19S (human, UniProt Q16548 1-153); test: covalent conjugation, 10:1 peptide:protein, reducing denaturing gel, Coomassie
T3 construct: range 1-153; Made by site-directed mutagenesis of BFL-1ΔC; also called His-BFL-1ΔC C4S/C19S; C55-only BFL-1; not shown: N-terminal His tag from the pET19b vector
T3 sequence (looked up): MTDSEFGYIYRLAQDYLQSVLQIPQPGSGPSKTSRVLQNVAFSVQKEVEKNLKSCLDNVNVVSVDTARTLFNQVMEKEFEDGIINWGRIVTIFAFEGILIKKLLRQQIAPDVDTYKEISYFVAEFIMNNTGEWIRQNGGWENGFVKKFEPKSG
Description: Processing for gel electrophoresis and Coomassie staining was performed as above.

MCL-1 (Examples 1-4) = biological target: T4, MCL-1 (Examples 1-4) (UniProt Q07820 170-327, limits assumed); test: fluorescence polarization, FITC-labelled SAHB, protein serially diluted from 1 µM
T4 construct: also called MCL-I
T4 sequence (Q07820 170-327 limits assumed): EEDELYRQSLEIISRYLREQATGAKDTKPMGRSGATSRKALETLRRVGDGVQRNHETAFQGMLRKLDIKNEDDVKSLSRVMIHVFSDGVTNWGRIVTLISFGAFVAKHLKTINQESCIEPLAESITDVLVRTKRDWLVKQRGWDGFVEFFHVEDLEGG
Description: (§1) The solution-state equilibrium binding assay was used to determine binding affinities of the stapled peptides to the anti-apoptotic proteins. Proteins were serially diluted from 1 μM, then combined with FITC-labeled SAHB and polarization measured at 5 min on a microplate reader. We then calculated dissociation constants (KD) by nonlinear regression analysis of dose-response curves.

Bfl-1 (Examples 1-4) = biological target: T5, Bfl-1 (Examples 1-4) (UniProt Q16548 1-153, limits assumed); test: as above
T5 construct: also called 9×His-tagged Bfl-1
T5 sequence (looked up): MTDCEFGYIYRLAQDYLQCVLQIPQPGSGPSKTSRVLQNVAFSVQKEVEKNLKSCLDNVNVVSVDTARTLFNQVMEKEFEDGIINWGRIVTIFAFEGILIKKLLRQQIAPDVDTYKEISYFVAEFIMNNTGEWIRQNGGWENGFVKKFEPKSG
Description: as §1

BFL-1ΔC C4S/C19S [3] = biological target: T3, BFL-1ΔC C4S/C19S; test: biolayer interferometry (Octet RED384): biotin-PEG-NOXA SAHB on super streptavidin tips, BFL-1ΔC construct in solution
Description: (§2) Excess streptavidin was quenched by incubation with 2 μg/mL biocytin. The tips were then washed with kinetics buffer and soaked in a serial dilution of BFL-1ΔC for 10 min to measure association rate, followed by a 15 min incubation in kinetics buffer to measure dissociation rate. Dissociation constants were calculated using Octet Data Analysis version 9.0.

BFL-1ΔC (aa 1-153) [4] = biological target: T1, BFL-1ΔC (aa 1-153); test: as above
Description: as §2

BFL-1ΔC C4S/C19S/C55S = biological target: T6, BFL-1ΔC C4S/C19S/C55S (human, UniProt Q16548 1-153); test: as above
T6 construct: range 1-153; Made by site-directed mutagenesis of BFL-1ΔC; also called BFL-1 with no cysteines; not shown: N-terminal His tag from the pET19b vector
T6 sequence (looked up): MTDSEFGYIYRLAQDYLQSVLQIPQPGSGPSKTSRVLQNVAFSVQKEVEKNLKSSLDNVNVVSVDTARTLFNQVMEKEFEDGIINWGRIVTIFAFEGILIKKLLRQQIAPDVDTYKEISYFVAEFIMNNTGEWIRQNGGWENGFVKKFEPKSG
Description: as §2

B1: NOXA SAHBA-3 (peptide)
peptide: [warhead 3]EVESATQLR[S5]FGD[S5]LNFRQKLL
modifications: staple 11-15; also: biotinylated form carries C-terminal Lys-biotin
notes: also called NOXA SAHBA-WH with warhead 3; biotinylated NOXA SAHBA-3
- binding result (BFL-1ΔC (aa 1-153) [1]): binds
- binding result (HA-BFL-1ΔC C4S/C19S): binds
- binding result (BFL-1ΔC C4S/C19S [2]): binds

B2: NOXA SAHBA (peptide)
peptide: AELEVECATQLR[S5]FGD[S5]LNFRQKLL
modifications: staple 13-17; also: N-terminus PEG-biotin or FITC depending on assay
notes: Stapled NOXA BH3 peptide (aa 19-43) with native C25; also called WT NOXA SAHB; wild-type NOXA SAHBA
- EC50 (read off the curve) (MCL-1 (Examples 1-4)): ~200 nM
- EC50 (read off the curve) (Bfl-1 (Examples 1-4)): ~100 nM
- Kd (BFL-1ΔC C4S/C19S [3]): 165 nM
- Kd (BFL-1ΔC (aa 1-153) [4]): 122 nM
- Kd (BFL-1ΔC C4S/C19S/C55S): 118 nM

B3: NOXA SAHBA C25S (peptide)
peptide: AELEVESATQLR[S5]FGD[S5]LNFRQKLL
modifications: staple 13-17; also: N-terminus PEG-biotin or FITC depending on assay
notes: Stapled NOXA BH3 peptide with C25S; also called NOXA C25S SAHB; NOXA C25 SAHB
- Kd (BFL-1ΔC C4S/C19S [3]): 47.2 nM
- Kd (BFL-1ΔC (aa 1-153) [4]): 46.6 nM
- Kd (BFL-1ΔC C4S/C19S/C55S): 58.2 nM

B5: BIM SAHBA-3 (peptide)
peptide: [Nip(3R)](Acryloyl)IAQELR[S5]IGD[S5]FNAYYARR
modifications: staple 8-12
notes: also called BIM SAHBA-WH with warhead 3; biotinylated BIM SAHBA-3
- binding result (BFL-1ΔC (aa 1-153) [1]): binds
- binding result (HA-BFL-1ΔC C4S/C19S): binds
- binding result (BFL-1ΔC C4S/C19S [2]): binds

B6: BIM SAHBA bearing warhead 1 (of FIG. 12B) (peptide)
peptide: [(3S)‑1‑acryloylpyrrolidine‑3‑carboxylic acid]IAQELR[S5]IGD[S5]FNAYYARR
modifications: staple 8-12
notes: also called BIM SAHBA-WH, warhead 1
- binding result (BFL-1ΔC C4S/C19S [2]): binds

B7: BIM SAHBA bearing warhead 8 (of FIG. 12B) (peptide)
peptide: Acryloyl-IAQELR[S5]IGD[S5]FNAYYARR
modifications: staple 7-11
notes: also called BIM SAHBA-WH, warhead 8
- binding result (BFL-1ΔC C4S/C19S [2]): binds

More lines, now with the values ahead:

- binding result (MCL-1 (Examples 1-4)): no binding (tested: 1e-6 M)
- EC50 (read off the curve) (Bfl-1 (Examples 1-4)): ~200 nM
B4: NOXA SAHBA F32Y (peptide)
peptide: AELEVECATQLR[S5]YGD[S5]LNFRQKLL
modifications: staple 13-17; also: FITC-labelled, site not given here
notes: member of the group m25; also called NOXA SAHB F32 variant with tyrosine

- binding result (BFL-1ΔC C4S/C19S [2]): binds
B8: NOXA SAHBA bearing warhead 1 (of FIG. 12B) (peptide)
peptide: [warhead 1]EVESATQLR[S5]FGD[S5]LNFRQKLL
modifications: staple 11-15; reading uncertain
notes: also called NOXA SAHBA-WH, warhead 1

- binding result (BFL-1ΔC C4S/C19S [2]): binds
B9: NOXA SAHBA bearing warhead 8 (of FIG. 12B) (peptide)
peptide: Acryloyl-EVESATQLR[S5]FGD[S5]LNFRQKLL
modifications: staple 10-14
notes: also called NOXA SAHBA-WH, warhead 8
